According to publication PMC5794259, “Novel ATP-cone-driven allosteric regulation of ribonucleotide reductase via the radical-generating subunit” (eLife, 2018):

B1: Leeuwenhoekiella blandensis NrdBi (wild type NrdB, radical-generating subunit of class I ribonucleotide reductase) (enzyme, UniProt A3XHF9 1-427, looked up)
chain: MSSQEIKKIIKRDYSTAPFVLEKITNAIANAMAALGHGSEQDAKLISMQVYESLLNNKEQESEYIPTVEQVQDMVEDKLMSSEFHDVAKAYIIYRNKRALERKTNIFEKRINLKPYEYPELNEYVAAIRHSYWIHTEFNFTSDIQDFKTGLSEVERSAIKNTMLAISQIEVAVKTFWGDVHHRLPKPEIAAVGATFAESEVRHHDAYSHLLEILGLNEEFKELKKKPVIMKRVHYLETSLKHAKSDDDREYTESILLFALFIEHVSLFSQFLIIMAFNKHKNMLKGISNAVEATSKEEQIHGDFGVDIINIIKKENPEWFDEEHNNLIKEMCLNSFEAESKVVDWIFEKGELDFLPKAVINEFLKNRFNKSLEAIGLEKLFDIDEALLQETEWFDDEIIGTKHGDFFVKRSINYSKRTQSITSDDLF
notes: NrdBi, radical-generating subunit of the class I RNR of Leeuwenhoekiella blandensis sp. nov. strain MED217; GenBank EAQ51288; amplified from genomic DNA with primers from the start codon to the stop codon; ATP-cone 1-103, linker 104-106, core 107-398, C-terminus 399-427; pET-28a(+) construct with N-terminal hexahistidine tag and thrombin site; Oligomeric state depends on nucleotide: dimer with …
B2: Leeuwenhoekiella blandensis NrdB, thrombin-cleaved (used for crystallization) (enzyme)
chain: GSHMSSQEIKKIIKRDYSTAPFVLEKITNAIANAMAALGHGSEQDAKLISMQVYESLLNNKEQESEYIPTVEQVQDMVEDKLMSSEFHDVAKAYIIYRNKRALERKTNIFEKRINLKPYEYPELNEYVAAIRHSYWIHTEFNFTSDIQDFKTGLSEVERSAIKNTMLAISQIEVAVKTFWGDVHHRLPKPEIAAVGATFAESEVRHHDAYSHLLEILGLNEEFKELKKKPVIMKRVHYLETSLKHAKSDDDREYTESILLFALFIEHVSLFSQFLIIMAFNKHKNMLKGISNAVEATSKEEQIHGDFGVDIINIIKKENPEWFDEEHNNLIKEMCLNSFEAESKVVDWIFEKGELDFLPKAVINEFLKNRFNKSLEAIGLEKLFDIDEALLQETEWFDDEIIGTKHGDFFVKRSINYSKRTQSITSDDLF
notes: three additional residues (GlySerHis) left at the N-terminus from the thrombin cleavage site; NrdBi of Leeuwenhoekiella blandensis sp. nov. strain MED217; GenBank EAQ51288; Crystallized with 5 mM dATP, 20 mM MgCl2; two dATP per ATP-cone; metal site occupied by Ca2+ from the crystallization medium; also called thrombin-cleaved NrdB; source: E. coli BL21(DE3), purified (HisTrap, gel filtration), …
B3: Leeuwenhoekiella blandensis NrdAi (NrdA, catalytic subunit of class I ribonucleotide reductase) (enzyme, UniProt A3XHF8 1-600, looked up)
chain: MRENTTKLENSTETNVQHTKDNDLLKARRDALQDATEKNTDEPSFDWLTEHSRSFLAAGYLSEGVSAEERIREIADRAEEILRMPGFSDKFYKYMGEGYFSLASPVWSNFGKKRGLPISCFGSHIDDDMGNILYTQSEVGMMSKLGGGTSGYFGKIRHRGAAVKNNGYASGAVHIMQLFDKMVDVVSQGSVRRGRFSPYLPISHPDIKEFLEIGTEGNSIQQLTHGVTVDSTWMQEMIDGDTDKREVWAKVLQRRGEMGYPYIFYTDNANNGKPDVYKDKGHDIYASNLCTEIMLPSSDEWSFVCVLSSINVLHYDKWKNTDAVETMVCFLDAVLTEFIDKLEEYRDSDNRDHRQTFMFMERAYNFAKSNRALGLGVLGWHSLLQSKRHAFDSQEAYDLNSEIFREIKQRSYKASEELAEKFGEPETLKGYGRRNATLNAIAPTTSSAFILGQVSQGIEPIWSNVYVKDIAKIKTTIKNPFLEELFEEKGMNTPEVWRSVRDNDGSVQHLEFLTEQEKDVFKTYAEIDQMAIIYQAANRQNHIDQGQSINLLVHPDMPIKEINKIHITAWKLGLKSLYYQHSMNAAQKFKQKKECVSCEA
notes: NrdAi, catalytic subunit of the class I RNR of Leeuwenhoekiella blandensis sp. nov. strain MED217; amplified from genomic DNA with primers from the start codon to the stop codon; pET-nrdA with N-terminal hexahistidine tag and thrombin site; no cleavage is told for NrdA (theoretical monomer mass printed as 70.6 kDa); source: E. coli BL21(DE3), pET-28a(+), purified (HisTrap Ni Sepharose, gel …)

How the values were obtained:
[1] = molecular target: the molecule itself; experiment: GEMMA (gas-phase electrophoretic macromolecule analysis); with 50 µM dATP and equimolar magnesium acetate; 20 mM ammonium acetate pH 7.5, 0.005% Tween 20; NrdB 0.1 mg/ml (~2 µM) or NrdB∆99
[2] = molecular target: the molecule itself; experiment: SEC; with ATP; Superdex 200 10/300 GL at room temperature; 50 mM Tris-HCl pH 7.6, 150 mM KCl, 10 mM MgCl2; NrdB 10 µM
[3] = molecular target: the molecule itself; experiment: crystal structure; NrdB 9.6 mg/ml with 20 mM MgCl2, 2 mM TCEP, 5 mM dATP; 0.2 M CaCl2, 0.1 M Tris pH 8.0, 20% PEG 600, 3% 6-aminohexanoic acid, 20°C; space group P1, one tetramer in the unit cell
[4] = molecular target: the molecule itself; experiment: SEC; with 100 µM dATP; Superdex 200 10/300 GL at room temperature; 50 mM Tris-HCl pH 7.6, 150 mM KCl, 10 mM MgCl2; NrdB 10 µM, NrdA at rising concentrations
[5] = molecular target: B1; experiment: SEC; with 3 mM ATP in sample and buffer; Superdex 200 PC 3.2/30 at 7°C; 50 mM Tris-HCl pH 8, 50 mM KCl, 10% glycerol, 10 mM magnesium acetate, 2 mM DTT; proteins 20 µM each; eluted fractions analysed by SDS PAGE; conditions: both partners purified

B1
stoichiometry N [1]: 4
stoichiometry N [2]: 2

B2
stoichiometry N [3]: 4

B3
stoichiometry N [4]: 2
stoichiometry N [5]: 1
